Measurements reported in US20230257746.

molecular target: T1, ZNF410 (Homo sapiens) (UniProt Q86VK4); details: CUT&RUN with anti-HA in HUDEP-2 cells
T1 sequence: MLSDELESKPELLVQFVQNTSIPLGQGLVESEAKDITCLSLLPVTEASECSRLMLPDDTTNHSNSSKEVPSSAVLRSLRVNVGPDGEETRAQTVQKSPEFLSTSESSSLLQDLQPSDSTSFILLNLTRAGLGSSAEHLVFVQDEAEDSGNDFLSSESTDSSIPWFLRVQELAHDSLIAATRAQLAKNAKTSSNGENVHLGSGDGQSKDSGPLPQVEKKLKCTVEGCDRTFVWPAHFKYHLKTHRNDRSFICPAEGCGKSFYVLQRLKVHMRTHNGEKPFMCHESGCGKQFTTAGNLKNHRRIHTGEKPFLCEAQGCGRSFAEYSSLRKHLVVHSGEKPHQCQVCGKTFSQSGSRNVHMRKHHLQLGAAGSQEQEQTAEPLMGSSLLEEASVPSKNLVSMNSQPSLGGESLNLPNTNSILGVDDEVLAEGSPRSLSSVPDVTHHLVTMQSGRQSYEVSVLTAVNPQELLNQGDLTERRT

Substance | binding signal (fold enrichment over IgG)
CHD4 -6 kb enhancer (11 ZNF410 motifs) | 78
CHD4 promoter (16 ZNF410 motifs) | 48
NBPF19 intron site | 11
